This test deals with recombinant human protease-activated receptor 1 with GST tag (GST-PAR1) (human) (UniProt P25116). In words: SPR; BIAcore X100; GST-PAR1 (10 ug/mL) captured on anti-GST antibody immobilised on a CM5 chip (about 854 RU); running buffer 50 mM Hepes pH 7.0, 0.01% CHS, 0.1% CHAPS, 0.33 mM DOPC:DOPS; captured GST as blank; analytes injected at 125 to 1000 nM, 30 uL/min; single site model.

Our source for the Kd values is article PMC8203498.

As for GARASVLSGGELDRWEKIRL [F1 peptide (p17 N-terminal sequence, aa 2 to 21)], the Kd turned out to be 0.046 µM.
